Values belong to the substance of their own block, whether it stands above or below them.
Key:
[1] = biological target: dockerin D37 (group 3) of R. flavefaciens FD-1 (Ruminococcus flavefaciens FD-1); assay: ITC; 10-uL aliquots of 80-180 uM cohesin injected into 20-30 uM thioredoxin-fused dockerin; 308.16 K; 50 mM Na-HEPES pH 7.5, 2 mM CaCl2, 0.5 mM TCEP; single-site model
[2] = biological target: dockerin D61 (group 6) of R. flavefaciens FD-1 (Ruminococcus flavefaciens FD-1); assay: as above
[3] = biological target: group-6 dockerin D61, thioredoxin-fused (pETG-20A) (Ruminococcus flavefaciens FD-1); assay: ITC; thioredoxin-fused dockerin (20-30 uM) in the cell, cohesin (80-180 uM) injected; 308.16 K; 50 mM Na-HEPES pH 7.5, 2 mM CaCl2, 0.5 mM TCEP; single-site model
[4] = biological target: group-3 dockerin D37, thioredoxin-fused (pETG-20A) (Ruminococcus flavefaciens FD-1); assay: as above
[5] = biological target: ScaH dockerin D49, thioredoxin-fused (pETG-20A) (Ruminococcus flavefaciens FD-1); assay: as above
[6] = biological target: group-2 dockerin D35 (ZP_06143271), thioredoxin-fused (pETG-20A) (Ruminococcus flavefaciens FD-1); assay: as above
[7] = biological target: ScaE cohesin of R. flavefaciens FD-1; assay: ELISA; conditions: read off a plot

ScaH dockerin D49, thioredoxin-fused (pETG-20A) (Ruminococcus flavefaciens FD-1), sequence (main, as listed by the source): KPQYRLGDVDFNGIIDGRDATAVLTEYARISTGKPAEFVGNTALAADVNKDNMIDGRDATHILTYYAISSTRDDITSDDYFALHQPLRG

Ka [1]: 1e+08 M⁻¹
stoichiometry N [1]: 1
Ka [2]: 1e+08 M⁻¹
stoichiometry N [2]: 1
Substance: ScaC cohesin of R. flavefaciens FD-1 (domain or fragment)

Ka [3]: 3.54e+08 M⁻¹
Ka [4]: 2.69e+08 M⁻¹
Substance: ScaC cohesin, His-tagged (pET21a) (domain or fragment)

Ka [5]: 1.56e+06 M⁻¹
Ka [6]: 6.17e+07 M⁻¹
Substance: ScaE cohesin, His-tagged (pET21a) (domain or fragment)

other: pEC50 ([7]; parent: est. 10.2): 10
Substance: dockerin of ScaH, ZP_06142361 (Coh-Doc) G11A; R12A

other: pEC50 ([7]; parent: est. 10.2): 9.1
Substance: dockerin of ScaH, ZP_06142361 (Coh-Doc) G11A; R12A; G50A; R51A

other: pEC50 ([7]; parent: est. 10.2): 9.9
Substance: dockerin of ScaH, ZP_06142361 (Coh-Doc) G50A; R51A

other: pEC50 ([7]; parent: est. 8.6): 8.6
Substance: dockerin of the peptidase ZP_06142181 (Peptidase-UNK-Doc) G11A; R12A

other: pEC50 ([7]; parent: est. 8.6): 7.6
Substance: dockerin of the peptidase ZP_06142181 (Peptidase-UNK-Doc) G11A; R12A; G50A; R51A

other: pEC50 ([7]; parent: est. 8.6): 8.2
Substance: dockerin of the peptidase ZP_06142181 (Peptidase-UNK-Doc) G50A; R51A
